Three substances from publication PMC6321254 can be followed below.

Where only a bound is given, the exact number is not on record here.

The target in assay [1] is HA-CXCR1-RLuc (human) (UniProt P25024).
For assay [2] the target is unchanged. The source holds these as a separate data set.
Assay [3] has the same target. The source holds these as a separate data set.

Chain of HA-CXCR1-RLuc (human) (P25024 2-350): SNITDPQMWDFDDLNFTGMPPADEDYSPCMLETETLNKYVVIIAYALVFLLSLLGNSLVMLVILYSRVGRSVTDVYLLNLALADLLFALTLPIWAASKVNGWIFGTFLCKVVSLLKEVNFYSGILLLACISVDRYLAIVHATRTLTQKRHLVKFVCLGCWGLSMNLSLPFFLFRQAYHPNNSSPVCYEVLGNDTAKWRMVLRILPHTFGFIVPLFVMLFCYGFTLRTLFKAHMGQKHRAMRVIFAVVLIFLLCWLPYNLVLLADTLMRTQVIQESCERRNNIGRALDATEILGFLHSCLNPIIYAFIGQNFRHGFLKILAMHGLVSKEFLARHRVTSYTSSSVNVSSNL

In the assay with HA-CXCR1-RLuc (human) [1], CXCL8(1-77) (ligand) displayed an internalization of endogenous CXCR1 on freshly purified human neutrophils (flow cytometry of surface receptor; 0.1-100 nM, 1 h, 37 °C); lowest concentration with a significant effect greater than 10 nM. As for CXCL8(6-77) (ligand), the Gαi-dependent reduction of forskolin-raised cAMP (AlphaScreen cAMP assay) in HEK-293T cells transfected with CXCR1 (pcDNA6 construct without RLuc); 0.1-100 nM; potency against CXCL8(1-77) (fold (against CXCL8(1-77))) with HA-CXCR1-RLuc (human) [2] is greater than 10. The same substance displayed a potency to induce recruitment of β-arrestin 2-EYFP to CXCR1-RLuc (BRET dose-response, HEK-293T), against CXCL8(1-77) (fold (against CXCL8(1-77))) in the assay with HA-CXCR1-RLuc (human) [3] of 10. In the assay with HA-CXCR1-RLuc (human) [2], [Cit5]CXCL8(1-77) (ligand) yielded a Gαi-dependent reduction of forskolin-raised cAMP (AlphaScreen cAMP assay) in HEK-293T cells transfected with CXCR1 (pcDNA6 construct without RLuc); 0.1-100 nM; potency against CXCL8(1-77) (fold (against CXCL8(1-77))) greater than 10.
